A word on the koff: it is the first-order rate constant of dissociation. As a reminder, the kon is the rate constant with which the complex forms. Low values mean slow association, high ones fast association.

A value given as a limit tells only on which side of the number the result lay.

The target in assay [1] is human α2β1 integrin on human cells (platelets, leukocytes, HT1080) (human, UniProt P17301 30-1181; P05556 21-798). As to the kind of experiment: cell-based or functional assay.
The target in assay [2] is human α2 integrin with endogenous hamster β1 on CHO cells (human; hamster). As to the kind of experiment: cell-based or functional assay.
human α2 integrin with endogenous hamster β1 on CHO cells (human; hamster), sequence (P17301 30-1181 E534K): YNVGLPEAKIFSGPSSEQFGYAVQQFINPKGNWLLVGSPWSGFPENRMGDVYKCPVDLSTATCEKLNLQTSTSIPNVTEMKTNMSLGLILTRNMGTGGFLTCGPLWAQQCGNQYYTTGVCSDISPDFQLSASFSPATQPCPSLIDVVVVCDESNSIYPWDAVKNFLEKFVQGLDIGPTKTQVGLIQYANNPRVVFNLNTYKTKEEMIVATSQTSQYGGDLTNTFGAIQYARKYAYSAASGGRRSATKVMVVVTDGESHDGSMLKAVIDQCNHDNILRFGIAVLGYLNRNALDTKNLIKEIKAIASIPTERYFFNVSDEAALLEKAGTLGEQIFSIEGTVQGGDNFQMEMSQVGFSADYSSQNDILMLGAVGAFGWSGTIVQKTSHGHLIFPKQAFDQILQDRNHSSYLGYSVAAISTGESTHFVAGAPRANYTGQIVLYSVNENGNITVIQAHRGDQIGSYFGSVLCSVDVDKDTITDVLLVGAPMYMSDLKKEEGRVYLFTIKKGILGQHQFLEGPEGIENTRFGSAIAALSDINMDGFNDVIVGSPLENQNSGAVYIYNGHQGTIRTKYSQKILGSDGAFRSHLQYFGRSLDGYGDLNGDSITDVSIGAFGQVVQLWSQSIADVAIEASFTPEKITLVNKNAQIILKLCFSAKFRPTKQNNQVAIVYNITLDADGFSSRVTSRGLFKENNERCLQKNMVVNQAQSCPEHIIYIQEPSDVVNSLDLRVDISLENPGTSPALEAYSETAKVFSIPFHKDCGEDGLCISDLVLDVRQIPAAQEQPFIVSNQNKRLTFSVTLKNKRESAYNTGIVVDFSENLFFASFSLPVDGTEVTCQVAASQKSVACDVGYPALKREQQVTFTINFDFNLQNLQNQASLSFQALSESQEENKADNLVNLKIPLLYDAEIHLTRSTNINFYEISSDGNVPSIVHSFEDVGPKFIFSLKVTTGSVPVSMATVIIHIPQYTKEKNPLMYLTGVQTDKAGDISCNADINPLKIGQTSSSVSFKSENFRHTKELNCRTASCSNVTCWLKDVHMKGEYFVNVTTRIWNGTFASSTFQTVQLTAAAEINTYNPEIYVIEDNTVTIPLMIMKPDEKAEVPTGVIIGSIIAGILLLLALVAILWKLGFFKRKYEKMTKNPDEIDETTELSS
The next assay addresses T1, GST-hα2 I domain K78E (human, UniProt P08515 1-218 = GST).
T1 construct: same construct as m41
As to the kind of experiment: ELISA, GST fusion protein on immobilized TMC-2206 (Kd apparent). The procedure: (§1) The fusion proteins were then expressed and purified as described above for the human GST-α2 I domain fusion protein. […] Therefore, these and the primate fusion proteins were further purified by size exclusion chromatography on a Sephadex 75 10/30 (GE-Amersham) column (primate) by FPLC on an Akta-Basic FPLC system (GE-Amersham) to yield a monomeric fraction. […] The Kᵢ assays were performed as described above in Example 2. […] Plates were sealed and coating occurred overnight at 4° C. The next morning, the plates were washed twice with TBS solution and then blocked using 200 μL of the blocking solution described above for 1 hour at room temperature with shaking. After blocking, the blocking solution was removed but the wells were not washed. Instead, a serial dilution of GST fusion protein was made, added to the wells and then incubated for 2 hours at room temperature with shaking. The wells were then aspirated and a TBS washing buffer applied for 5 minutes at room temperature. The washing step was repeated twice more before the secondary antibody was applied. The secondary antibody step consisted of Amersham's HRP-conjugated rabbit anti-GST antibody diluted 1:2000 in blocking buffer. One hundred μL of secondary antibody was added to each well and incubated at room temperature for 1.5 hours with shaking. The wells were again aspirated and washed three times with wash buffer before adding the substrate reaction mixture. One hundred μL of substrate reaction mixture (1:1 dilution of TMB kit) was then added to each well for 6 minutes. The reaction was stopped by adding 100 μL of 0.1M H₂SO₄. The reaction within the wells was then read and quantified by spectrophotometric absorption using the Molecular Dynamics plate reader and associated Softmax software, respectively. Kd values were then estimated from the EC₅₀ values using Prism software (Graphpad, Calif.).
A general note: ELISA stands for enzyme-linked immunosorbent assay.

In assay [3] the target is T2, GST-human α2 I domain fusion protein (human, UniProt P17301 153-368).
T2 construct: the reverse primer ends at ...SIEGTV; also called GST-α2 I domain; hα2I; not shown: glutathione S-transferase tag encoded by vector pGEX-2TK
T2 sequence: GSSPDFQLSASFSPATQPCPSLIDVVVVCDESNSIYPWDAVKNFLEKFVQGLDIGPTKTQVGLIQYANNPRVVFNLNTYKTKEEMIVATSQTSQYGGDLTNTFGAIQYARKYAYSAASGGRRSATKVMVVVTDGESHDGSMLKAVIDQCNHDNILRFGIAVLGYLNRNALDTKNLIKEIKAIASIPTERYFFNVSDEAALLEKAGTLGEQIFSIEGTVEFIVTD
Nature of the assay: ELISA, GST fusion protein on immobilized TMC-2206, Kd estimated from EC50. The procedure: as §1, with “One hundred μL of secondary antibody was added to each well and incubated at room temperature for 1.5 hours with shaking. The wells were again aspirated and washed three times with wash buffer before adding the substrate reaction mixture. One hundred μL of substrate reaction mixture (1:1 dilution of TMB kit) was then added to each well for 6 minutes. The reaction was stopped by adding 100 μL of 0.1M H₂SO₄.” left out, “Kd values were then estimated from the EC₅₀ values using Prism software (Graphpad, Calif.).” left out

Assay [4] has as its target T3, GST-rhesus α2 I domain fusion protein (rhesus monkey, UniProt P17301 153-368 (human entry)).
T3 construct: also called rhesus GST-α2 I; not shown: glutathione S-transferase tag encoded by vector pGEX-2TK
T3 sequence: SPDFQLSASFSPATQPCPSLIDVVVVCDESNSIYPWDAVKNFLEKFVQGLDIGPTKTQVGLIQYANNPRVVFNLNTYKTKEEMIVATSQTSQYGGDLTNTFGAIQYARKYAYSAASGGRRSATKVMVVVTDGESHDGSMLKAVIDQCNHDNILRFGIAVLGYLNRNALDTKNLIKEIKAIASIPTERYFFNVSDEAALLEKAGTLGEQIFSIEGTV
The description is as above. The procedure:
as §1, with “One hundred μL of secondary antibody was added to each well and incubated at room temperature for 1.5 hours with shaking. The wells were again aspirated and washed three times with wash buffer before adding the substrate reaction mixture. One hundred μL of substrate reaction mixture (1:1 dilution of TMB kit) was then added to each well for 6 minutes. The reaction was stopped by adding 100 μL of 0.1M H₂SO₄.” left out, “Kd values were then estimated from the EC₅₀ values using Prism software (Graphpad, Calif.).” left out

Assay [5] addresses T4, GST (UniProt P08515 1-218 = GST).
T4 construct: also called GST fusion protein (negative control)
As to the kind of experiment: ELISA, GST on immobilized TMC-2206.

Assay [6] has as its target T2, GST-human α2 I domain fusion protein. Nature of the assay: SPR (Biacore 2000), antibody captured, GST-α2 I domain in solution; second Human row; second Human row of humanized TMC-2206. The source says:
SPR, a method for characterizing macromolecular interactions, is an optical technique that uses the […] phenomenon to exquisitely measure minute changes in refractive index very close to a sensor surface. The binding between an antigen in solution (e.g., fusion protein) and its MAb receptor (immobilized on the surface of a sensor chip) results in a change in refractive index. The interaction is monitored in real time and the amount of bound antigen and the association and dissociation rate constants can be measured with high precision. The equilibrium dissociation constant can be easily calculated from: KD=kd/kₐ=koff/kₒₙ. The cloning of the human α2 I domain and the purification of the expressed GST-human α2 I domain fusion protein was described in Example 12. Analyses were performed at 20° C. using a Biacore 2000 optical sensor with a research-grade CM5 sensor chip (Biacore Life Sciences, Uppsala, Sweden) and equilibrated with running buffer (50 mM HEPES, 150 mM NaCl, 0.25 mM MgCl₂, 0.25 mM CaCl₂, 0.5% Tween-20, 0.1 mg/ml BSA, pH 7.4). […] Each cycle of antigen (GST-human-α2 I domain fusion protein) binding to surface-tethered anti-mouse IgGs involved three steps. […] [The other two surfaces (one anti-mouse and one Protein A) served as analytic references.] In the second step, GST-human-α2 I domain fusion protein was injected across the four surfaces. Responses obtained from the reference surfaces (due to refractive index mismatches between the antigen and running buffer) were subtracted from the responses obtained from the reaction surfaces. In the third step, the antigen/antibody complexes were stripped from the surfaces such that the surfaces could be used for another binding cycle.
(In general: In SPR one partner is held on a chip, and binding of the other changes the refractive index at the surface.)

The target of assay [7] is T5, GST-cynomolgus α2 I domain fusion protein of Example 18 (sequence identical to the human I domain) (cynomolgus monkey, UniProt P17301 153-368 (human entry)).
T5 construct: also called GST-cynomolgous-α2 I domain fusion protein; not shown: glutathione S-transferase tag, vector not restated
T5 sequence: T3 sequence
As to the kind of experiment: SPR (Biacore 2000), antibody captured, GST-α2 I domain in solution.

The target of assay [8] is T4, GST. Nature of the assay: GST competing Eu-humanized TMC-2206 off α2β1-coated plate.

human α2β1 integrin on human cells (platelets, leukocytes, HT1080), sequence (P17301 30-1181 E534K limits assumed, chain 1 of 2): as the sequence (P17301 30-1181 E534K) above
human α2β1 integrin on human cells (platelets, leukocytes, HT1080), sequence (P05556 21-798 limits assumed, chain 2 of 2): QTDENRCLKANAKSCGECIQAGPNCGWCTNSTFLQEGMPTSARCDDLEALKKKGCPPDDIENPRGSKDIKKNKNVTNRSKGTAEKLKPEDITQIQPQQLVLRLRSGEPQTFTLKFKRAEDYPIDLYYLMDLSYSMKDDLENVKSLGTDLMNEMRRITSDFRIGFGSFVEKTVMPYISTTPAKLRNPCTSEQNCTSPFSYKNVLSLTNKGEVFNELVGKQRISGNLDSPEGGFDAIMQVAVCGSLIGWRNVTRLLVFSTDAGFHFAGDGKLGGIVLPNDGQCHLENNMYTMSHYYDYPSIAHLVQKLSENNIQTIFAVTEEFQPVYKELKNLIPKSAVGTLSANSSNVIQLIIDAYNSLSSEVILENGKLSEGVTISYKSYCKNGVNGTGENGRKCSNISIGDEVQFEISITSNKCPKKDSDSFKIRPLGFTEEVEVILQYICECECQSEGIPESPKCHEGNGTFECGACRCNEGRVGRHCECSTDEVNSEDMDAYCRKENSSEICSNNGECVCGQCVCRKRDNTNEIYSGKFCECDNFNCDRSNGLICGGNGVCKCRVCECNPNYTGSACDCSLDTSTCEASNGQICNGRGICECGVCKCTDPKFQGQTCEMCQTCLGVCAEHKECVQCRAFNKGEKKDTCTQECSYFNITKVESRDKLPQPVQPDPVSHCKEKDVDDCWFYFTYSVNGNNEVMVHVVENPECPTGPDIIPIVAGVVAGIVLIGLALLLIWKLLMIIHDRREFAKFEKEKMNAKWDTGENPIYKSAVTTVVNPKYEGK
T4 sequence (P08515 whole entry, the tested form may be a part): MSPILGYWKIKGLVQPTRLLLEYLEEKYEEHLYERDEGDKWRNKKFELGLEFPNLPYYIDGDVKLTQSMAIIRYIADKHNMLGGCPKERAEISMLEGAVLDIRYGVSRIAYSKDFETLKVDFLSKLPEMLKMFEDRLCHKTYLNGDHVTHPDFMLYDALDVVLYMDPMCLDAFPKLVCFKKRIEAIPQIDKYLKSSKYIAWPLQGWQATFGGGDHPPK

B1: TMC-2206 (antibody, mouse IgG1, V domains shown)
VH: QVQLKESGPGLVAPSQSLSITCTVSGFSLTNYGIHWVRQPPGKGLEWLGVIWARGFTNYNSALMSRLIITKDNSQSQVFLKMNSLQPDDSATYFCARANDGVYYAMDYWGQGTSVTVSS
VL: QFVLTQSPAFLSASPGEKVTMTCSANSSVNYIHWYQQKSGTSPKKWIYDTSKLASGVPVRFSGSGSGTSYSLTISSMETEDAATYYCQQWTTNPLTFGAGTRVELK
notes: murine IgG1/κ secreted by hybridoma BHA2.1; labelled with Eu-N1-ITC where used as tracer; also called BHA2.1
In the case of B1, in [1], the “EC50 (nM), human platelet adhesion to human collagen Type I, ADP 0 µM” value amounted to 1.7 nM; the “EC50 (nM), human platelet adhesion to human collagen Type I, ADP 20 µM” value came to 9.5 nM; the “EC50 (nM), human platelet adhesion to human collagen Type II, ADP 0 µM” value was determined as 1.9 nM; the “EC50 (nM), human platelet adhesion to human collagen Type II, ADP 20 µM” value was 27 nM. Further, in assay [1], the “EC50 (nM), human platelet adhesion to human collagen Type III, ADP 0 µM” value amounted to 1.6 nM; the “EC50 (nM), human platelet adhesion to human collagen Type III, ADP 20 µM” value came out at 11 nM; the “EC50 (nM), human platelet adhesion to human collagen Type IV, ADP 0 µM” value came out at 10 nM; the “EC50 (nM), human platelet adhesion to human collagen Type IV, ADP 20 µM” value was > 1000 nM. Moreover, in assay [1], the “EC50 (nM), human platelet adhesion to human collagen Type VI, ADP 0 µM” value was 2.3 nM and the “EC50 (nM), human platelet adhesion to human collagen Type VI, ADP 20 µM” value came to 23 nM. Further, the “EC50 (nM), cell adhesion to collagen assay” value in assay [2] turned out to be 1.03 nM. In the assay with GST-hα2 I domain K78E, the Kd was 0.16 nM. The Kd in assay [3] was 0.18 nM. Also, the Kd in assay [4] is 0.04 nM. The binding result in the assay with GST [5] is on record as “no binding (tested: ~1 µM)”.

B2: Humanized TMC-2206 (hIgG4/κ VH12.0/VL10.0Q) (antibody)
heavy: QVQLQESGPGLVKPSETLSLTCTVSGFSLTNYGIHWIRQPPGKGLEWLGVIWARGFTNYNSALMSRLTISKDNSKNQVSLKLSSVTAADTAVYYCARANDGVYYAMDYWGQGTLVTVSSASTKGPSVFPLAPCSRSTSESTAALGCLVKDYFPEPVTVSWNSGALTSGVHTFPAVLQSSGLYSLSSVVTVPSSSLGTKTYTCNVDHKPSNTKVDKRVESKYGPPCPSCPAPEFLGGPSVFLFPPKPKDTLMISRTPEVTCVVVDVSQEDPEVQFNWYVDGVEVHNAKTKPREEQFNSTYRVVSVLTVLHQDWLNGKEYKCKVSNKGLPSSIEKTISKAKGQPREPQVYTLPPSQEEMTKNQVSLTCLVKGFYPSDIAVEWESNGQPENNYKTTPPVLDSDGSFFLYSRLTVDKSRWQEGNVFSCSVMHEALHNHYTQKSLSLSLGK
light: DFVMTQSPAFLSVTPGEKVTITCSAQSSVNYIHWYQQKPDQAPKKLIYDTSKLASGVPSRFSGSGSGTDYTFTISSLEAEDAATYYCQQWTTNPLTFGQGTKVEIKRTVAAPSVFIFPPSDEQLKSGTASVVCLLNNFYPREAKVQWKVDNALQSGNSQESVTEQDSKDSTYSLSSTLTLSKADYEKHKVYACEVTHQGLSSPVTKSFNRGEC
notes: labelled with Eu or Alexa-488 in some assays
In the case of B2, in [6], the Kd turned out to be 4 nM, the koff is 0.0024 s⁻¹ and the kon worked out at 580000 M⁻¹ s⁻¹. In assay [7], this molecule displayed a Kd of 5 nM, a koff of 0.003 s⁻¹ and a kon of 500000 M⁻¹ s⁻¹. Besides, in the assay with GST [8], the binding result is recorded as “no binding (tested: 0.4 µM)”.

Source of the values: patent publication US20070128190A1 (GLENMARK PHARMACEUTICALS S A, published 2007).
